Measurements from publication PMC3840697 (Angewandte Chemie (International Ed. in English), 2013).

Biological target: T1, exosome core with Rrp42 N9A (state A mutant) (UniProt Q9UXC2 1-248; Q9UXC0 1-275, N9A)
T1 sequence 1: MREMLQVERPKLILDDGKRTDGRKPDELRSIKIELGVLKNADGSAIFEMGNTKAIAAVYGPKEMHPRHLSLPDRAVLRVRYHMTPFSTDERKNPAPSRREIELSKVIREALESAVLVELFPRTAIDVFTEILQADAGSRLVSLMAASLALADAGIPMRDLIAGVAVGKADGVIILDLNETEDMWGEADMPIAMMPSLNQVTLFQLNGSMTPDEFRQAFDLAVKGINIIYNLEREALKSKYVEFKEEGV
T1 sequence 2: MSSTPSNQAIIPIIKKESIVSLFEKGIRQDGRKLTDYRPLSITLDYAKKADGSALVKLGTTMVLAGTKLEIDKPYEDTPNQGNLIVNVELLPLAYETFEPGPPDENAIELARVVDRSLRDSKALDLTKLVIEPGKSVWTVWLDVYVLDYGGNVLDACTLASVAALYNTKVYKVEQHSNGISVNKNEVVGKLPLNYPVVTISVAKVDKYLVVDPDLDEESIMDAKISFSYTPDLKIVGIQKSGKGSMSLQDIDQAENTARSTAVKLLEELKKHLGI
Test: methyl TROSY NMR spectra of free and cap-bound exosome core

- binding result: binds
B1: Rrp4 (exosome cap protein) (natural protein)
chain: MNMSQSQKIVLQPRSIVVPGELLAEGEFQIPWSPYILKINSKYYSTVVGLFDVKDTQFEVIPLEGSFYYPKINDIVIGLVEDVEIYGWVVDIKAPYKAYLPASNLLGRSINVGEDLRRYLDVGDYVIARIENFDRSIDPVLSVKGKDLGRVSNGIVIDIMPVKVPRVIGKNKSMYETLTSKSGCSIFVANNGRIWATCPSRFSEEILIEAIRKIENESHIKGLTDRIKQFIEEKLGERNASSGETKTNS
